The text below walks through data of article PMC3272785.

Substrate in this data set: Nc1nc(=O)[nH]cc1F
Kind of data set: steady-state kinetics. The note with it: Zn2+. Type of data set: biochemical, Saccharomyces cerevisiae.

B1: yeast cytosine deaminase (yCD) (Saccharomyces cerevisiae S288C) (protein)
chain: MASKWDQKGMDIAYEEAALGYKEGGVPIGGCLINNKDGSVLGRGHNMRFQKGSATLHGEISTLENCGRLEGKVYKDTTLYTTLSPCDMCTGAIIMYGIPRCVVGENVNFKSKGEKYLQTRGHEVVVVDDERCKKIMKQFIDERPQDWFEDIGE
As a reminder, the Km is the concentration of substrate that gives half-maximal velocity. As a reminder, the kcat is the maximal rate divided by the concentration of active sites. The term kcat/Km denotes the turnover number divided by the Michaelis constant. For the protein B1, the Km is 160 ± 10 µM, the turnover number (kcat) came out at 17 ± 0.4 s⁻¹ and the kcat/Km is 106000 M⁻¹ s⁻¹.
